Measurements taken from the supplement of paper PMC12667976.

B1: library; numbered along this chain (parent)
chain: MATDAALRRLLRLHRTEIAVAVDSAFPLLHALADHDVVPEDKFQETLHLKEKEGCPQAFHALLSWLLTQDSTAILDFWRVLFKDYNLERYGRLQPILDSFPKDVDLSQPRKGRKPPAVPKALVPPPRLPTKRKASEEARAAAPAALTPRGTASPGSQLKAKPPKKPESSAEQQRLPLGNGIQTMSASVQRAVAMSSGDVPGARGAVEGILIQQVFESGGSKKCIQVGGEFYTPSKFEDSGSGKNKARSSSGPKPLVRAKGAQGAAPGGGEARLGQQGSVPAPLALPSDPQLHQKNEDECAVCRDGGELICCDGCPRAFHLACLSPPLREIPSGTWRCSSCLQATVQEVQPRAEEPRPQEPPVETPLPPGLRSAGEEVRGPPGEPLAGMDTTLVYKHLPAPPSAAPLPGLDSSALHPLLCVGPEGQQNLAPGARCGVCGDGTDVLRCTHCAAAFHWRCHFPAGTSRPGTGLRCRSCSGDVTPAPVEGVLAPSPARLAPGPAKDDTASHEPALHRDDLESLLSEHTFDGILQWAIQSMARPAAPFPS

Variants of: B1
Test: AIRE transcriptional activation functional score (insulin promoter-GFP; nonsense median 0, synonymous median 1) (normalised score); higher = higher AIRE activity (more reporter activation)
Conditions: with insulin promoter-GFP reporter in HEK293
Description: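 Deep mutational scan of full-length human AIRE (codon-optimized cDNA, DT-POPCode NNN libraries over three regions) integrated at a Bxb1 landing pad in HEK293 cells carrying an insulin core promoter-GFP reporter at a Flp-In site. Cells were sorted for the top 10% GFP about 14 days after transfection. Variant frequency log-ratios (select vs non-select, TileSeq) were rescaled so that the nonsense median is 0 and the synonymous median is 1, then averaged over biological replicates.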

AIRE transcriptional activation functional score: each site, then its substitutions
P254: I 0.86; D 0.547; K 0.683; T 0.737; N -0.115; W 1.07; V 1.27; Q 1.2; L 1.01; C 1.24; H 0.946; F 0.266; G 0.342; S 0.995; M 0.826; E 0.818; A 0.885; Y 1.28
N244: V 0.206; H 0.405; A 0.269; F 1.08; Y 1.25; S 1.3; D 1.1; G 0.138; T 1.14; C 0.374; K -0.184; L 0.301; I 1.07; Q 1.19; E 0.249; M -0.168; R 0.573
S249: F 0.707; E -0.0377; L 0.67; Q 0.961; Y 0.973; H 0.402; P 0.451; I 1.25; C 1.33; W 1.81; R -0.21; T 0.256; N 0.548; G 1.22; M 1.28; V 1.12; D 0.114; A 1.07
G251: N -0.159; I 1.2; V 1.22; D 1.2; W 1.36; Y 1.42; H 1.02; A 0.845; S 0.796; F 1.2; C 0.932; L 1.21; R 0.585; T 1.09; K 1.05; M 0.603; Q 0.448; E 1.44; P -0.0792
R257: Q 0.729; S 0.904; W 0.743; M 0.588; N -1.39; F 0.785; T 0.86; I 0.805; L 0.834; K 0.866; V 0.256; G 0.771; P 0.935; E 1.12; A 0.916; C -0.159; D 1.16
V256: P 0.878; S 1.07; G 1.05; M 0.911; F 1.33; K 0.102; Y 1.39; W 1.37; L 0.974; R 0.207; H 0.851; D 0.705; C 0.771; A 1.16; E 0.8; Q 0.671; T 0.8; N 0.685; I 0.599
S241: Y 1.12; R 0.436; Q 0.992; W 0.868; V 0.868; T 1.11
S250: M 1.68; V 1.1; F 1.13; A 0.792; C 1.23; W 0.939; G 0.835; Y 1.26; R 0.0524; L 1.02; H 0.963; Q -0.615; I 1.11; K 0.556; P -0.109; T 0.687; N 0.847; E 0.4; D 0.427
A258: G 0.943; M 0.409; S 0.657; H 1.05; V 1.36; P 1.23; E 1.13; F 1.19; D 0.387; R 0.0043; I 0.643; L 0.814; W 1.05; C 1.18; T 0.978; Q 0.586
K259: C 1.33; D -0.753; Q 0.922; S 0.917; W 1.19; L 0.941; F 1.08; R 0.916; P 0.82; A 1.23; I 0.551; E 0.714; T 0.966; Y 1.31; H 0.439; M 1.2; N 1.03; G -0.585
